Results reported in the RNAGym collection of RNA variant scans (doi:10.7554/elife.80360).

B1: Hairpin Ribozyme (parent)
chain: GUCCUCUUUCACGUGCGCGUGAAAGAGAGAAGUGAACCAGAGAAACACACGUUGUGGUAUAUUACCUGGUA

Variants of: B1
Experiment: self-cleavage, relative activity (ratio to wild type); higher = more cleavage; co-transcriptional

Variant | self-cleavage
A24U G40C | 0.116
A44U G56C | 0.239
G27U U33C | 0.109
G25C G69A | 0.149
U7G G17U | 1.04
G25U U58G | 0.439
A26C C48A | 0.045
C12G C18A | 0.926
C4A U20C | 0.267
G25C A31U | 0.143
G40U C46A | 0.16
U14A A44C | 0.14
A49G U52A | 0.614
A49G U52G | 0.371
C12G A47U | 0.183
G21U C48G | 0.132
A35C A64C | 0.211
C6A U63G | 0.191
A43C A64G | 0.185
U2G G54C | 0.155
U7A A35U | 0.714
G13A G40A | 0.33
C50A U67A | 0.153
C3G G69A | 0.108

Variant | self-cleavage
U14A A26G | 0.575
A22U C48G | 0.111
U5G G21C | 0.177
G51A U52A | 1.15
G21U C65U | 0.234
U9G C12G | 0.53
A22U G68C | 0.252
U8G C12A | 0.395
A23U A28C | 0.613
G13C G68U | 0.193
C12A A23G | 0.677
U9G A35G | 0.546
C12G A59G | 0.18
C3A A45C | 0.157
C18G A24C | 0.731
C10U G19C | 0.702
U14A A61G | 0.101
G42U U53G | 0.198
C12A G42U | 0.301
U62G C66A | 0.207
G13U C16A | 0.558
C12U U63C | 0.0427
A28G A41G | 0.908
C6G A24C | 0.192

Variant | self-cleavage
G19U G51A | 0.956
G32U C50U | 0.119
A39U U58C | 0.46
G29A A45G | 0.105
A24C U63G | 0.0877
U52A A71C | 1.46
G32A A35G | 0.142
A47G G56U | 0.169
G32C U60A | 0.203
U5A C6U | 0.228
G57C A71G | 0.201
G19U G27C | 0.318
U53C | 0.97
G27A A71G | 0.545
A49U C66G | 0.136
C16U C48U | 0.179
A47C A71G | 0.344
C3A C46U | 0.111
U33C G34A | 0.142
A39U U60G | 0.256
G1C G69U | 0.144
U8G A71C | 1.34
C4G C48U | 0.146
G1C A26C | 0.14

Variant | self-cleavage
C10G U53A | 0.663
C18G U55A | 0.145
U33C G51U | 0.144
U52C A59G | 0.0564
C10A A45G | 0.138
U5C G19C | 0.435
U14A C18G | 0.636
A28G C37G | 0.36
G15C U70C | 0.965
G15U A43C | 0.195
G21C A24U | 0.585
A44U C66G | 0.183
A24G A30G | 0.0908
C65A G68C | 0.224
G27A U70G | 0.227
U33G G42U | 0.153
C10U C12U | 0.652
A26U A44G | 0.288
G40C A45G | 0.0193
G54C U58A | 0.334
A47G A49G | 0.129
G32C U67A | 0.134
G19A C37A | 0.264
U20C A59G | 0.149

Variant | self-cleavage
C6A G40C | 0.109
A23C G29A | 0.177
C4U U55G | 0.157
U8G C18G | 0.518
C50A U58G | 0.242
U8C G54C | 0.346
A35C C46G | 0.0823
U9C A59C | 0.142
G27U C66U | 0.288
C3U C4G | 0.235
U5A C18G | 0.306
G42A A47U | 0.0842
U2C G42U | 0.203
A41G A64C | 0.0864
G34U U52A | 1.5
C16A G56A | 0.0316
C10G U67A | 0.191
U8G A36U | 0.557
U9C G51A | 0.775
U8C G40A | 0.274
U9C C12U | 0.665
G13A A49C | 0.102
A59G A64G | 0.176
C65G G68A | 0.254

Variant | self-cleavage
U2A G42C | 0.145
G32U | 0.13
G19A G34U | 1.18
G40C G42A | 0.0581
C6G G17C | 0.365
G27A A30G | 0.0562
G19U C66G | 0.22
G57A C66G | 0.103
C16A C65A | 0.845
G56U A61U | 0.124
G13U C50G | 0.259
G21C U55G | 0.248
C37U G40A | 0.183
U58G C65A | 0.816
U8A U58A | 0.561
G15U G42C | 0.44
G21A | 0.809
G21C A49G | 0.302
G42U G56A | 0.231
U5A C48U | 0.104
U2C U58G | 0.148
C10G C48A | 0.151
A28G G40U | 0.19
A26G G51C | 0.78

Variant | self-cleavage
G15A C48U | 0.0998
G19C G34U | 1.45
C10U G42U | 0.269
C3A A49C | 0.164
U8A U53C | 0.778
C4U U20A | 0.281
U8G U60A | 0.647
G1U U55G | 0.104
A30U G56C | 0.15
A22C A35C | 0.895
A49U A64C | 0.163
G15C A44C | 0.0713
C48A G69U | 0.121
C48G U62A | 0.0564
U8C U55G | 0.101
A26C A28G | 0.785
A49C U52G | 0.14
U7A A23U | 0.791
G25U U60C | 0.885
U55A U63C | 0.106
A39U A41C | 0.3
C46U G57U | 0.234
C48G U70A | 0.144
